B1: human full-length H103 Ab (anti-PKM2 antibody, IgG1) (antibody, V domains shown)
VH: QVQLQESGPGLVRPSGTLSLICAVSGDSISSSIWWSWVRQSPGKGLEWIGYIYHNGNTYYNPSLESRVTISVDTSENQFSLKLSSVTAADTAVYYCARGYDSSGYYWTDDRYYFDYWGQGTLVTVSS
VL: NFMLTQPHSVSESPGKTVTISCTGSSGSIASNYVQWYQQRPGSAPTTVIYEDNQRPPGVPDRFSGSIDSSSNSASLTISALETEDEADYYCQSYDSRNIDVVFGGGTKVTVL
B2: Na2S2O4-cleaved HAP103 Ab (act-HAP103) (antibody, V domains shown)
VH: QVQLQESGPGLVRPSGTLSLICAVSGDSISSSIWWSWVRQSPGKGLEWIGYIYHNGNTYYNPSLESRVTISVDTSENQFSLKLSSVTAADTAVYYCARGYDSSGYYWTDDRYYFDYWGQGTLVTVSS
VL: NFMLTQPHSVSESPGKTVTISCTGSSGSIASNYVQWYQQRPGSAPTTVIYEDNQRPPGVPDRFSGSIDSSSNSASLTISALETEDEADYYCQSYDSRNIDVVFGGGTKVTVL

Target: human PKM2 Ag (M2 splice isoform of pyruvate kinase), purified (human, UniProt P14618 1-531)
Sequence (P14618 whole entry, canonical isoform): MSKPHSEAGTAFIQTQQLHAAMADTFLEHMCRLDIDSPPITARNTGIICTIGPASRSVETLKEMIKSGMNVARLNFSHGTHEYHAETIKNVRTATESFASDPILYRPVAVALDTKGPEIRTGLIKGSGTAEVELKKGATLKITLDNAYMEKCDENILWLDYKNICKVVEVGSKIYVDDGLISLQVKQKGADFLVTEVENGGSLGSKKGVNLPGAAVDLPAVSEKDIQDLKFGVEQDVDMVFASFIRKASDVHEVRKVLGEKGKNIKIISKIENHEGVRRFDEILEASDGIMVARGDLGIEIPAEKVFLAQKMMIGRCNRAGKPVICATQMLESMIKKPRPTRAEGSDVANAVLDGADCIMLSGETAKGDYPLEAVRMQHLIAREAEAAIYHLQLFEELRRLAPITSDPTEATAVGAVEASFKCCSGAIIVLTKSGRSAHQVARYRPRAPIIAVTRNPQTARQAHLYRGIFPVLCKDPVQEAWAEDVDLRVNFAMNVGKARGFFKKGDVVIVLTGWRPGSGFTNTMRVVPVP
Assay: SPR

Binder	Kd [nM]
B1	0.228
B2	0.632

From PMC10929192 (2024)
